Data reported in patent publication CN117327177A (dated 2024).

T1: Adiponectin (human, UniProt Q15848)
T1 chain: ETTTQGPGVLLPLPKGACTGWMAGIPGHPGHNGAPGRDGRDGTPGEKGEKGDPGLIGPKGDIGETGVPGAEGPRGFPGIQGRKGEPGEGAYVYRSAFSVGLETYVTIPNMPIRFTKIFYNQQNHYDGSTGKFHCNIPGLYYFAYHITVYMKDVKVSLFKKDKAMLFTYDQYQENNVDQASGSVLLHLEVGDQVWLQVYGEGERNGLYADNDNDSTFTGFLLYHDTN


Legend:
[1] = molecular target: 脂联素抗原(购自HYTEST，8AN7) (UniProt Q15848); experiment: indirect ELISA, adiponectin coated at 0.5 ug/ml, antibody at 6.25 ng/ml
[2] = molecular target: 脂联素抗原(购自HYTEST，8AN7) (UniProt Q15848); experiment: indirect ELISA, adiponectin coated at 0.5 ug/ml, antibody at 3.13 ng/ml
[3] = molecular target: 脂联素抗原(购自HYTEST，8AN7) (UniProt Q15848); experiment: indirect ELISA, adiponectin coated at 0.5 ug/ml, antibody at 0.39 ng/ml
[4] = molecular target: 脂联素抗原(购自HYTEST，8AN7) (UniProt Q15848); experiment: indirect ELISA, adiponectin coated at 0.5 ug/ml, antibody at 0 ng/ml (blank)
[5] = molecular target: 脂联素抗原(购自HYTEST，8AN7) (UniProt Q15848); experiment: indirect ELISA, adiponectin coated at 0.5 ug/ml, antibody at 1.56 ng/ml
[6] = molecular target: 脂联素抗原(购自HYTEST，8AN7) (UniProt Q15848); experiment: BLI, antibody captured on AMC sensor, adiponectin antigen in gradient dilution in PBST
[7] = molecular target: 脂联素抗原(购自HYTEST，8AN7) (UniProt Q15848); experiment: indirect ELISA, adiponectin coated at 0.5 ug/ml, antibody at 0.78 ng/ml
[8] = molecular target: T1, Adiponectin; experiment: BLI

OD450 (ref 630 nm) [1]	OD450 (ref 630 nm) [2]	OD450 (ref 630 nm) [3]	OD450 (ref 630 nm) [4]	OD450 (ref 630 nm) [5]	Kd [6]	koff [6]	kon [6]	OD450 (ref 630 nm) [7]	Kd [8]	Molecule
1.8 OD	1.43 OD	0.261 OD	0.055 OD	0.802 OD	87.1 nM	0.00923 s⁻¹	106000 M⁻¹ s⁻¹	0.451 OD	–	对照 (antibody)
2.33 OD	2.26 OD	1.02 OD	0.074 OD	2.06 OD	–	0.00209 s⁻¹	5.58e+06 M⁻¹ s⁻¹	1.79 OD	0.374 nM	Anti-APN 6C2mut1 (antibody, V domains shown) VH: EVQLQQSGPELVKPGASVKMSCKASGYSFTGYFINWVKQSHGKSLEWIGRINPYNGDTFYNEKFKGKATFTADISSSAAHMELLSLTSEDSAVYYCGRGGGLQRPYFDYWGQGTTLTVSP VL: DIQMTQSSSYLSVSLGGRVTITCKASDHVNNWLAWYQQKPGNAPRLLISGATNLETGVPSRFSGSGSGKDYTLTITSVQTEDVATYYCQQYWISALTFGAGTKLELN
